Test results from patent publication US20250215080A1 (published 2025).
One block for each binder: values may come before it.

Columns and labels:
[1] = biological target: T1, hTREM2 ECD (19-174) (human, UniProt Q9NZC2 19-174); assay: SET
T1 construct: Antigen in solution of the SET experiments; also called human TREM2 (SET antigen)
T1 sequence: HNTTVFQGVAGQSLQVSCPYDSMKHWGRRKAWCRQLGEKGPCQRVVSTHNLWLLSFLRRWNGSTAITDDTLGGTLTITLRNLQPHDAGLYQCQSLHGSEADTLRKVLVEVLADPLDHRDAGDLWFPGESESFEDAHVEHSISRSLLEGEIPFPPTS

[2] = biological target: T2, cynomolgus TREM2 (construct not stated) (cynomolgus, UniProt A0A2K5UY34 49-204); assay: SET
T2 construct: also called cyno TREM2
T2 sequence: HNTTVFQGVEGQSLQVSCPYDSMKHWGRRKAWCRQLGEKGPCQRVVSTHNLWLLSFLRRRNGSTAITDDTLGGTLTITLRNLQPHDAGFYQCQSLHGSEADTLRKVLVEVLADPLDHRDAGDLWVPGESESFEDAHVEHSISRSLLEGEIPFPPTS

[3] = biological target: T1, hTREM2 ECD (19-174); assay: SET screening
Experimental: Serial dilutions of unlabeled antigen were prepared, starting with a concentration at least 10 times higher than the expected KD. Wells without antigen were used to determine Bmax values; wells containing only assay buffer were used to determine background.
The data was evaluated with XLfit (IDBS) software applying customized fitting models. […] A constant amount of diluted BEL extract (containing borate buffer, EDTA and lysozyme) was equilibrated over night with different concentrations of antigen.

[4] = biological target: T3, human TREM2 (hTREM2), expressed on cells (human, UniProt Q9NZC2 19-230); assay: FACS, hM2A, donor 1
T3 construct: Signal peptide 1-18 as stated left out; On CHO cells co-expressed with hDAP12; on hM2A macrophages endogenous; also called WT-TREM2; CHO-hDAP12-hTREM2
T3 sequence: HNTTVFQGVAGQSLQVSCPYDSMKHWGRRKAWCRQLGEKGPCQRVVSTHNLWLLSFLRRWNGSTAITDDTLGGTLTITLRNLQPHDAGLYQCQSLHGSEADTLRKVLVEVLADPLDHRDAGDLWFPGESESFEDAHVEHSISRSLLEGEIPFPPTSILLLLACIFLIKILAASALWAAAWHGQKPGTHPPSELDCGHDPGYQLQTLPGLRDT
Experimental: (§1) To determine cellular EC₅₀ of antibodies on hM2A, CHO-hTREM2 or CHO-cynoTREM2, cells were treated o/n with 5 μM DPC333 (ADAM10 and 17 inhibitor; Qian, M et al. Drug Metab Dispos, 2007. 35:p. 1916-1925). Macrophages were detached with accutase (Biolegend, 423201) followed by resuspension in FACS buffer (PBS, 2% FBS, 0.5 mM EDTA, pH 8.0) supplemented with 50 μg/ml Fc block (BD, 564220) and incubated for at least 20 min on ice. Next cells were stained for 1 h at 4° C. in the same buffer with a broad concentration range of the different anti-TREM2 antibodies followed by a washing step with PBS (250 g, 4° C., 3 min). […] After a second washing step with PBS (250 g, 4° C., 3 min), cells were fixed with fixation buffer (Biolegend, 420801) for 15 min at RT, washed again and fluorescence was assessed using a BD FACS Canto II (BD, V96300323) or a FacsCalibur flow cytometer. Median fluorescence intensities corresponding to the degree of TREM2 antibody bound to cells were evaluated using FlowJo software (Millipore INC).
(§2) Individual values for each donor are given.

[5] = biological target: T3, human TREM2 (hTREM2), expressed on cells; assay: FACS, hM2A, donor 2
Experimental: as §1, §2

[6] = biological target: T3, human TREM2 (hTREM2), expressed on cells; assay: FACS, hM2A, donor 3
Experimental: as §1, §2

[7] = biological target: T3, human TREM2 (hTREM2), expressed on cells; assay: FACS, hM2A, donor 4
Experimental: as §1, §2

[8] = biological target: proteins of the protein panel profiling (3P), 25 in total; assay: protein panel profiling (3P), ECL
[9] = biological target: T3, human TREM2 (hTREM2), expressed on cells; assay: cell-based or functional assay
[10] = biological target: T3, human TREM2 (hTREM2), expressed on cells; assay: cell-based or functional assay; remark: listed apart in the source
[11] = biological target: T3, human TREM2 (hTREM2), expressed on cells; assay: FACS, hM2A macrophages
Experimental: as §1, §2

[12] = biological target: T3, human TREM2 (hTREM2), expressed on cells; assay: FACS, CHO-hTREM2 cells
Experimental: as §1

[13] = biological target: T3, human TREM2 (hTREM2), expressed on cells; assay: cell-based or functional assay; remark: listed apart in the source
[14] = biological target: T4, cynomolgus TREM2 expressed on CHO cells (cynomolgus, UniProt A0A2K5UY34 49-260); assay: FACS, CHO-cyTREM2 cells
T4 construct: whole, on cells; also called CHO-cyTREM2; CHO-cynoTREM2
T4 sequence: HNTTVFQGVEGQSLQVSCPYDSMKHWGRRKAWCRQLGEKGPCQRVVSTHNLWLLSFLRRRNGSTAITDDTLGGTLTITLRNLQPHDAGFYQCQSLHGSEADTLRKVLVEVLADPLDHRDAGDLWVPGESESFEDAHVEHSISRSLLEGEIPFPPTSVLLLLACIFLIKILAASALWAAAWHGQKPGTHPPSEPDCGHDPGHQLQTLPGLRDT
Experimental: as §1

[15] = biological target: T5, hTREM2 ECD (19-174)-hFc (human, UniProt Q9NZC2 19-174, biotinylated in the -bio form); assay: SPR, label free kinetics
T5 construct: Plain and biotinylated forms are kept as one molecule; also called hTREM2 ECD (19-174)-hFc-bio; hTREM2 Fc
T5 sequence: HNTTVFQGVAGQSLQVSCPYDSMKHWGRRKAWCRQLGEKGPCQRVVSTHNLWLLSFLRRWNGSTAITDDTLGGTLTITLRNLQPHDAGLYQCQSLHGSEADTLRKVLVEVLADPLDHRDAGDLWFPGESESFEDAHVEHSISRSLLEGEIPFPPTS
Experimental: (§3) For a precise assessment of the binding affinities of the antibodies affinity-determination by measuring kinetic rate constants was performed by SPR. In addition a comparison to cynomolgus TREM2 was performed (Table 21).

[16] = biological target: T6, cyTREM2 ECD (19-174)-APP-Avi (cynomolgus, UniProt A0A2K5UY34 49-204); assay: SPR, label free kinetics
T6 construct: range 19-174
T6 sequence: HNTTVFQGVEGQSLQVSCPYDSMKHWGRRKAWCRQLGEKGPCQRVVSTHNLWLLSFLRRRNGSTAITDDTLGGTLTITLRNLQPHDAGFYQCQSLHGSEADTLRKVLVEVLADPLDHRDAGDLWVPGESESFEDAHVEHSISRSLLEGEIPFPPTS
Experimental: as §3

[17] = biological target: T7, hTREM2 IgSF-hTREM1 stalk-hFc (human, UniProt Q9NP99 135-205, limits assumed, biotinylated in the -bio form); assay: S/BG on recombinant protein
T7 construct: domain: stalk region; also called hTREM2 IgSF-T1 stalk-hFc-bio; hTREM2 IgSF-hTREM1 stalk-hFc-bio
T7 sequence: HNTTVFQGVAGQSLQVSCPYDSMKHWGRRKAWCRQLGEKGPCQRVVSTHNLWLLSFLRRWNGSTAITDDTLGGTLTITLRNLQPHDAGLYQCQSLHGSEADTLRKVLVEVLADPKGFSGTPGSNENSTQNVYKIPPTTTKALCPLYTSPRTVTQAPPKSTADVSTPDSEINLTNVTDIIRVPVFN

[18] = biological target: T5, hTREM2 ECD (19-174)-hFc; assay: S/BG on recombinant protein
[19] = biological target: T8, cyTREM2 ECD (19-174)-hFc (cynomolgus, UniProt A0A2K5UY34 49-204); assay: S/BG on recombinant protein
T8 construct: range 19-174; also called cyTREM2-ECD (19-174)-hFc-bio
T8 sequence: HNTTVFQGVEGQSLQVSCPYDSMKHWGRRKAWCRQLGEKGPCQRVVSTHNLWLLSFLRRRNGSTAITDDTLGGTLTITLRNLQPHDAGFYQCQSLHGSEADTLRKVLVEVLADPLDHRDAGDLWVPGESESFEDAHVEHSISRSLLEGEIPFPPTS

[20] = biological target: T3, human TREM2 (hTREM2), expressed on cells; assay: FACS, hM2A, median of 4 donors
Experimental: as §1, §2

[21] = biological target: T9, hTREM2 ECD (19-174)-His (human, UniProt Q9NZC2 19-174); assay: SPR Biacore
T9 sequence: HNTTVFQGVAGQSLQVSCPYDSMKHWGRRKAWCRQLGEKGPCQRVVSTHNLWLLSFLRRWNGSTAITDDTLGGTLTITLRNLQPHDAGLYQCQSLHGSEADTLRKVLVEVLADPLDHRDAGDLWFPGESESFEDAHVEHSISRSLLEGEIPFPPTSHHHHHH

[22] = biological target: T6, cyTREM2 ECD (19-174)-APP-Avi; assay: SPR Biacore
[23] = biological target: T10, mTREM2 ECD (19-168)-His (mouse, UniProt Q99NH8 19-168); assay: SPR Biacore
T10 construct: range 19-168
T10 sequence (looked up): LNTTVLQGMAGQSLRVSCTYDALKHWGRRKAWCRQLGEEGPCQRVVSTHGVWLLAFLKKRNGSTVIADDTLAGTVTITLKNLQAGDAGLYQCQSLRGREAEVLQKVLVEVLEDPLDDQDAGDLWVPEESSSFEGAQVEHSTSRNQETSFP

[24] = biological target: T5, hTREM2 ECD (19-174)-hFc; assay: direct ELISA
Experimental: Antigens were immobilized on microtiter plates (see Table 8). Plates were blocked and incubated with antibodies such as Fab containing crude E. coli lysates or purified Fab or IgG samples. Bound antibodies were detected using respective alkaline-phosphatase (AP) coupled secondary antibodies in combination with ‘AttoPhos’ fluorescence substrate. Multiple washing steps were performed between individual assay steps.

[25] = biological target: T3, human TREM2 (hTREM2), expressed on cells; assay: FACS, hM2A macrophages; remark: listed apart in the source
[26] = biological target: T3, human TREM2 (hTREM2), expressed on cells; assay: FACS, CHO-DAP12-hTREM2 cells
[27] = biological target: T3, human TREM2 (hTREM2), expressed on cells; assay: FACS, CHO-hDAP12-hTREM2 cells

- Kd [1]: 0.046 nM
- Kd [2]: 0.039 nM
- Kd [3]: < 0.6 nM
- EC50 [4]: 0.86 nM
- EC50 [5]: 0.55 nM
- EC50 [6]: 0.55 nM
- EC50 [7]: 0.56 nM
- Cumulative binding ratio [8]: < 150
- Internalization compared to parental after 6 h [9]: 1.5 fold of parental
- Internalization; fold over background after 6 h [9]: 57.1 fold
- TREM2 activation (fold in RGA) [10]: 1 fold
- EC50 [11]: < 2 nM
- EC50 [12]: 0.2 nM
- Fold TREM2 cell surface increase compared to isotype (hM2A, 100 nM o/n) [13]: 7.9 fold
- EC50 [14]: 0.46 nM
- Kd [15]: 0.046 nM
- Kd [16]: 0.039 nM
- S/BG [17]: > 20
- S/BG [18]: > 5
- S/BG [19]: > 5
- EC50 [20]: 0.56 nM
B1: MOR044698 (antibody, V domains shown)
VH: QVQLVQSGAEVKKPGASVKVSCKASGYTFTGYHMSWVRQAPGQGLEWMGVINPVSGNTVYAQKFQGRVTMTRDTSISTAYMELSRLRSEDTAVYYCARIPSYTYAFDYWGQGTLVTVSS
VL: DIQMTQSPSSLSASVGDRVTITCRASQDISNYLAWYQQKPGKAPKLLIYRASSLQSGVPSRFSGSGSGTDFTLTISSLQPEDFATYYCFQYRHMPSQTFGQGTKVEIK
notes: light chain 26); Human IgG vector of the campaign: IgG1f LALA; Matured from MOR042596; VH1B k1; also called MOR44698

- Kd [21]: 12 nM
- Kd [22]: 6.6 nM
- Kd [23]: 0.9 nM
- EC50 [24]: 2.4 nM
- EC50 [25]: 37 nM
- EC50 [26]: 3.4 nM
- EC50 [27]: 3.4 nM
B2: MOR042596 (full IgG) (antibody, V domains shown)
VH: QVQLVQSGAEVKKPGASVKVSCKASGYTFTGYHMSWVRQAPGQGLEWMGVINPVSGNTVYAQKFQGRVTMTRDTSISTAYMELSRLRSEDTAVYYCARIPSYTYAFDYWGQGTLVTVSS
VL: DIQMTQSPSSLSASVGDRVTITCRASQDISNYLAWYQQKPGKAPKLLIYRASSLQSGVPSRFSGSGSGTDFTLTISSLQPEDFATYYCQQHGHSPTTFGQGTKVEIKR
notes: Parental antibody of MOR044698; VH1B k1
